Experimental data reported in patent US9744188B2, “Methods of promoting neuronal outgrowth by gypican 2 that binds to receptor protein tyrosine phosphatase sigma” (PRESIDENT AND FELLOWS OF HARVARD COLLEGE, priority 2011, dated 2017).
“Also recorded” adds a separate entry of the source.

T1: mouse RPTPσ sEcto-Fc (Mus musculus, UniProt B0V2N1)
T1 construct: made in house; host or cells: transiently transfected 293T cells
T1 sequence (B0V2N1 30-851 isoform B0V2N1-3 limits assumed): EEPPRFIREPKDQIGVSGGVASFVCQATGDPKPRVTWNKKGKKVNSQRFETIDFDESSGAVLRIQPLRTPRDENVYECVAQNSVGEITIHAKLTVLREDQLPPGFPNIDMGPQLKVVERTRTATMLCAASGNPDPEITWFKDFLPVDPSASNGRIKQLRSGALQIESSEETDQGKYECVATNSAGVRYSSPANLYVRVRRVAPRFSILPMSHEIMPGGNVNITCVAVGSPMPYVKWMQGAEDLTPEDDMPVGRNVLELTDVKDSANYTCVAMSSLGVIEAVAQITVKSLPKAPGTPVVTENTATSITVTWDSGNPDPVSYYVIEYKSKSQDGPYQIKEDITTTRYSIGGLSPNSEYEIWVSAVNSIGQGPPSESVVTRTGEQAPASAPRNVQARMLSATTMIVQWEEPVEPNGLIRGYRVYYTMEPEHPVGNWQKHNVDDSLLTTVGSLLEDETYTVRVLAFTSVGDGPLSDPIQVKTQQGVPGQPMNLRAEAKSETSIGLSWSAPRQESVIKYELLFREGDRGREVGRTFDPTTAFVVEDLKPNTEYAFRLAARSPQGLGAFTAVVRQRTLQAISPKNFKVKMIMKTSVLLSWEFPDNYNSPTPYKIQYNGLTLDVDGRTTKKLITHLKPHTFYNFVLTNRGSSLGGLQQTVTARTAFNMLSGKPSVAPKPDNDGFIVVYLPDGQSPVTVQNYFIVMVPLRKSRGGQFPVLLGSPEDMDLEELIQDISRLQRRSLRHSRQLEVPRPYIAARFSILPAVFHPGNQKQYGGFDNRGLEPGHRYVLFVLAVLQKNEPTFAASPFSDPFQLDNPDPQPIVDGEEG


Experiments:
[1] = target: RPTPσ on mouse dorsal root ganglion (DRG) neurons (mouse) (UniProt B0V2N1); assay: cell-based or functional assay
[2] = target: Mouse RPTPσ sEcto-Fc (mouse) (UniProt B0V2N1); assay: solid phase binding assay, immobilised mouse RPTPσ sEcto-Fc, bound AP activity; Kd from the binding curve, one-to-one binding assumed; Scatchard inset
[3] = target: T1, mouse RPTPσ sEcto-Fc; assay: Solid phase binding assay: proteoglycan-AP fusion proteins on immobilised RPTPσ sEcto-Fc; details: neurocan pre-treated with chondroitinase ABC; glypican-2 pre-treated with heparitinase III
Method: Analysis of binding between RPTPσ sEcto-Fc and Glypican-2 or Neurocan alkaline phosphate (AP) fusion proteins was performed as described previously (S2, S26). All fusion proteins were produced in transiently transfected 293T cells. Briefly, the RPTPσ Fc-fusion protein was immobilised on 96-well Reactibind Protein A-coated plates (Pierce) and incubated with soluble proteoglycan-AP proteins which had been normalized for equal input AP activity. AP activity was determined by measuring substrate turnover on a microplate reader as described (S27, S28). […] In FIG. 23, the binding between RPTPσ-Fc and heparin-derived size-fractionated oligosaccharides with different lengths (HS6, HS8, HS10, HS17, HS23, HS30 and HS67, corresponding to hexasaccharide, octasaccharide, decasaccharide, or approximately 17, 23, 30 and 67 saccharide units; molecular weights 1,800 Da, 3,000 Da, 5,000 Da, 7,000 Da, 9,000 Da, and 20,000 Da; Neoparin) was analyzed with RPTPσ-Fc immobilised on 96-well Reactibind Protein A-coated plates (Pierce) and incubated with soluble biotinalated HS. The bound HS was quantified by AP enzyme activity following incubation with streptavidin-AP (Promega). […]

[4] = system: RPTPσ−/− P8 mouse DRG neurons; assay: DRG neurite outgrowth assay in RPTPσ−/− neurons; type: cell-based; details: neurocan 5 μg/ml or glypican-2 30 μg/ml; 48 hours
Method: (§1) DRGs of P8-12 RPTPσ^+/+ or RPTPσ^−/− mice were cut off from all roots. Neurons were dissociated and subjected to neurite outgrowth assays and analysis as described previously (S2). For experiments in FIG. 1, recombinant mouse Neurocan (5800-NC, R&D Systems) was used at 5 μg/ml and recombinant mouse Glypican-2 (2355-GP, R&D Systems) at 30 μg/ml. In FIG. 5, 30 μg/ml of Glypican-2 was pre-incubated with 1 unit/ml of Heparitinase III (HPNIII, H8891, Sigma) at 37° C. for 4 hrs where indicated, prior to use in outgrowth assays. For experiments in FIG. 19, recombinant mouse glypican-2 was used at 5 μg/ml, and Chondroitin Sulfate Proteoglycan mixture (CSPG, CC117, Millipore) was at 125 μg/ml. For experiments in FIGS. 24 and 25, Chondroitin Sulfate Proteoglycan mixture (CSPG, CC117, Millipore) was at 60 μg/ml, with or without the addition of HS at indicated length and concentration (1 μM for all HS in […]). Proteoglycans and heparin oligosaccharides were added to neuronal cultures 30 min after seeding and were replenished 24 hrs later. At 48 hrs after seeding, cells were fixed and immunostained with anti-GAP43 antibody (NB300-143, Novus). The whole of each well was scanned with a fluorescence microscope and the images were then analyzed for total neurite outgrowth using the Metamorph program.

[5] = system: wild-type mouse DRG neurons; assay: DRG neurite outgrowth assay (GAP-43 immunostaining, total neurite outgrowth); type: cell-based; details: for effect on neurite outgrowth of wild-type neurons: poly-D-lysine/laminin supplemented with neurocan 5 μg/ml or glypican-2 30 μg/ml
Method: as §1

Neurocan-alkaline phosphatase, sequence (P55066 23-1268): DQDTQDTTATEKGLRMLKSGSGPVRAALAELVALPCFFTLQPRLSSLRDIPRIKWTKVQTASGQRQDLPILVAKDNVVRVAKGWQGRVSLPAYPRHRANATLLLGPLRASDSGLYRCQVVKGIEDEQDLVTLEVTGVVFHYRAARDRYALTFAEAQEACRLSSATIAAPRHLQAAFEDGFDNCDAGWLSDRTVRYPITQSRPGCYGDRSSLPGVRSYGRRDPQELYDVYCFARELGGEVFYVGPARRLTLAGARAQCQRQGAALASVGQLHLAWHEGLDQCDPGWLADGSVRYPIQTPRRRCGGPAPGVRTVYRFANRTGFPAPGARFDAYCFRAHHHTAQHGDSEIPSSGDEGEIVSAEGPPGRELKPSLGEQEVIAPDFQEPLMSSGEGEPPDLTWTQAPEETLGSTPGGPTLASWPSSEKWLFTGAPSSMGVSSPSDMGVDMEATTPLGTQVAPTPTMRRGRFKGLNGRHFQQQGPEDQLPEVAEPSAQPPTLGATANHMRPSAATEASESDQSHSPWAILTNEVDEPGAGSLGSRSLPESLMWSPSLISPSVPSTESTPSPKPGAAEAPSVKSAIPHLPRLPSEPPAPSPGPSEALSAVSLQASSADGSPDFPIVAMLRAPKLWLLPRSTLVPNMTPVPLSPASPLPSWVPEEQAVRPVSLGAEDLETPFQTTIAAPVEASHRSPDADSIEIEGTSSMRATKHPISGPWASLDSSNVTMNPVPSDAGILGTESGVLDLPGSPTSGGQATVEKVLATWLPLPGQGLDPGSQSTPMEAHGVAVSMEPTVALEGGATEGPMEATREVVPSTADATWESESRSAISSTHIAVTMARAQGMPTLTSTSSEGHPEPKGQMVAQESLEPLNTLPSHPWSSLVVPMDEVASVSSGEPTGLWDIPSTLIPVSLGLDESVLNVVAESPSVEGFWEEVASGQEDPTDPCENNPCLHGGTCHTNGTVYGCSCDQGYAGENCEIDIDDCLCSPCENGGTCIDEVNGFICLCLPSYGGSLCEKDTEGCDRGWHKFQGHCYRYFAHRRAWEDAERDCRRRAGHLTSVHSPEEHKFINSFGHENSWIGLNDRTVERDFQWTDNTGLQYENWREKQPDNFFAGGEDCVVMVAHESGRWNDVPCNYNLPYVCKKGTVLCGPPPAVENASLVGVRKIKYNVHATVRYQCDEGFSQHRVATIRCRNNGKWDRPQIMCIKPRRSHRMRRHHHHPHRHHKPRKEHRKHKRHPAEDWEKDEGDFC

Row | Molecule | binding to RPTPσ after enzymatic removal of GAG chains [3] | effect on neurite outgrowth of RPTPσ−/− neurons compared with wild-type [4] | effect on neurite outgrowth of wild-type neurons ([5]; 48 hours) | further results
1 | recombinant mouse Neurocan (5800-NC, R&D Systems) (from UniProt P55066 23-637) | – | – | – | decrease in outgrowth of wild-type DRG neurons (neurite outgrowth assay) [1]: 60%
2 | Neurocan-alkaline phosphatase | – | – | – | Kd [2]: 21.2 nM
3 | neurocan: a representative CSPG; Neurocan-AP fusion in binding assays, recombinant mouse Neurocan (5800-NC, R&D Systems) in outgrowth assays (protein) DQDTQDTTATEKGLRMLKSGSGPVRAALAELVALPCFFTLQPRLSSLRDIPRIKWTKVQTASGQRQDLPILVAKDNVVRVAKGWQGRVSLPAYPRHRANATLLLGPLRASDSGLYRCQVVKGIEDEQDLVTLEVTGVVFHYRAARDRYALTFAEAQEACRLSSATIAAPRHLQAAFEDGFDNCDAGWLSDRTVRYPITQSRPGCYGDRSSLPGVRSYGRRDPQELYDVYCFARELGGEVFYVGPARRLTLAGARAQCQRQGAALASVGQLHLAWHEGLDQCDPGWLADGSVRYPIQTPRRRCGGPAPGVRTVYRFANRTGFPAPGARFDAYCFRAHHHTAQHGDSEIPSSGDEGEIVSAEGPPGRELKPSLGEQEVIAPDFQEPLMSSGEGEPPDLTWTQAPEETLGSTPGGPTLASWPSSEKWLFTGAPSSMGVSSPSDMGVDMEATTPLGTQVAPTPTMRRGRFKGLNGRHFQQQGPEDQLPEVAEPSAQPPTLGATANHMRPSAATEASESDQSHSPWAILTNEVDEPGAGSLGSRSLPESLMWSPSLISPSVPSTESTPSPKPGAAEAPSVKSAIPHLPRLPSEPPAPSPGPSEALSAVSLQASSADGSPD | dramatically reduced binding | inhibitory effect was decreased | inhibition | reduction of neurite outgrowth ([5]; wild-type DRG neurons, neurocan 5 μg/ml, 48 hours): approximately 60%
4 | glypican-2: a representative HSPG; Glypican2-AP fusion in binding assays, recombinant mouse Glypican-2 (2355-GP, R&D Systems) in outgrowth assays (protein) HGSEAKVVRSCAETRQVLGARGYSLNLIPPSLISGEHLQVCPQEYTCCSSETEQKLIRDAEVTFRGLVEDSGSFLIHTLAARHRKFNEFFREMLSISQHSLAQLFSHSYGRLYSQHAVIFNSLFSGLRDYYEKSGEGLDDTLADFWAQLLERAFPLLHPQYSFPPDFLLCLTRLTSTADGSLQPFGDSPRRLRLQISRALVAARALVQGLETGRNVVSEALKVPVLEGCRQALMRLIGCPLCRGVPSLMPCRGFCLNVAHGCLSSRGLEPEWGGYLDGLLLLAEKLQGPFSFELAAESIGVKISEGLMHLQENSVKVSAKVFQECGTPHPVQSRSRRAPAPREEASRSWRASAEEERPTTAAGTNLHRLVWELRERLSRVRGFWAGLPVTVCGDSRMAADLSQETAPCWTGVGRGRYMSPVVVGSLNEQLHNPELDTSSPDVPTRRRRLHLRAATARMKAAALGQDLDMHDADEDASGSGGGQQYADDWKAGAVPVVPPARPPRPPRPPRRDGLGVRGGSGSARYNQGRSRNLGS | dramatically reduced binding | reduced to undetectable levels | strongly promoted outgrowth; also recorded: promotion of outgrowth | neurite outgrowth relative to control at lower concentration ([5]; glypican-2 5 μg/ml, wild-type P10 DRG neurons (FIG. 19)): promoted outgrowth to a lesser extent; growth-promoting effect after heparitinase III treatment ([5]; glypican-2 30 μg/ml pre-incubated with 1 unit/ml HPNIII): significantly reduced its growth-promoting ability; also recorded: did not completely eliminate the growth promoting effect
